Results taken from paper PMC11969024, “Development of chemokine network inhibitors using combinatorial saturation mutagenesis” (Communications Biology, 2025).

B1: peptide HD2 (from tick evasin EVA4) / CXCL14 (biotinylated, synthetic) (parent)
chain 1: EEDDYTAYAPLTCYFT
chain 2: SKCKCSRKGPKIRYSDVKKLEMKPKYPHCEEKMVIITTKSVSRYRGQEHCLHPKLQSTKRFIKWYNAWNEKRRVYEE
B2: peptide HD2 (from tick evasin EVA4) / CCL1 (biotinylated, synthetic) (parent)
chain 1: EEDDYTAYAPLTCYFT
chain 2: KSMQVPFSRCCFSFAEQEIPLRAILCYRNTSSICSNEGLIFKLKRGKEACALDTVGWVQRHRKMLRHCPSKRK
B3: peptide HD2 (from tick evasin EVA4) / CCL18 (biotinylated, synthetic) (parent)
chain 1: EEDDYTAYAPLTCYFT
chain 2: AQVGTNKELCCLVYTSWQIPQKFIVDYSETSPQCPKPGVILLTKRGRQICADPNKKWVQKYISDLKLNA
B4: peptide HD2 (from tick evasin EVA4) / CCL8 (biotinylated, synthetic) (parent)
chain 1: EEDDYTAYAPLTCYFT
chain 2: QPDSVSIPITCCFNVINRKIPIQRLESYTRITNIQCPKEAVIFKTKRGKEVCADPKERWVRDSMKHLDQIFQNLKP
B5: peptide HD2 (from tick evasin EVA4) / CCL17 (biotinylated, synthetic) (parent)
chain 1: EEDDYTAYAPLTCYFT
chain 2: ARGTNVGRECCLEYFKGAIPLRKLKTWYQTSEDCSRDAIVFVTVQGRAICSDPNNKRVKNAVKYLQSLERS

Variants of: B1
Settings: with CXCL14 (biotinylated, synthetic); scale: log2

In order of falling enrichment:
1. chain 1 E2Q  -3.16
2. chain 1 D3Q  -3.25
3. chain 1 E2K  -3.41
4. chain 1 D3K  -3.62
5. chain 1 Y8K  -4.33
6. chain 1 D4G  -4.48
7. chain 1 Y5P  -4.99
8. chain 1 E1M  -5.07
9. chain 1 D4K  -5.14
10. chain 1 D3W  -5.18
11. chain 1 P10K  -5.23
12. chain 1 L11K  -5.25
13. chain 1 E2P  -5.31
14. chain 1 Y5D  -5.31
15. chain 1 Y5A  -5.33
16. chain 1 D4R  -5.35
17. chain 1 T16Y  -5.41
18. chain 1 E1G  -5.5
19. chain 1 E1A  -5.59
20. chain 1 F15P  -5.62
21. chain 1 D3R  -5.71
22. chain 1 T16F  -5.71
23. chain 1 Y14D  -5.79
24. chain 1 E1P  -5.8
25. chain 1 Y5N  -5.97
26. chain 1 D4H  -6.03
27. chain 1 P10T  -6.13
28. chain 1 D4T  -6.14
29. chain 1 P10N  -6.28
30. chain 1 A9R  -6.78
31. chain 1 E1N  -6.84
32. chain 1 F15D  -6.86
33. chain 1 C13H  -6.91
34. chain 1 Y8G  -6.97
35. chain 1 F15E  -7.19
36. chain 1 D4C  -7.5
37. chain 1 D3S  -7.81
38. chain 1 E1C  -8.01
39. chain 1 Y8S  -8.01
40. chain 1 D3C  -8.16
41. chain 1 A9C  -8.35
42. chain 1 C13R  -8.81
43. chain 1 D4L  -9.04

Variants of: B2
Settings: with CCL1 (biotinylated, synthetic); scale: log2

In order of falling enrichment:
1. chain 1 Y5E  -2.71
2. chain 1 E2K  -4.38
3. chain 1 D3K  -4.59
4. chain 1 Y5Q  -4.59
5. chain 1 Y5K  -4.83
6. chain 1 Y8K  -5.3
7. chain 1 Y8E  -5.41
8. chain 1 D4G  -5.45
9. chain 1 Y8Q  -5.59
10. chain 1 D4Q  -5.71
11. chain 1 A9K  -5.86
12. chain 1 Y5P  -5.96
13. chain 1 D4K  -6.11
14. chain 1 Y14N  -6.13
15. chain 1 P10K  -6.19
16. chain 1 Y5D  -6.28
17. chain 1 Y5R  -6.28
18. chain 1 Y5A  -6.3
19. chain 1 D4R  -6.32
20. chain 1 Y5G  -6.34
21. chain 1 Y5H  -6.55
22. chain 1 D3R  -6.68
23. chain 1 Y14D  -6.76
24. chain 1 Y8H  -6.8
25. chain 1 Y5M  -6.87
26. chain 1 Y5T  -6.9
27. chain 1 P10T  -7.09
28. chain 1 D4T  -7.11
29. chain 1 P10H  -7.18
30. chain 1 P10N  -7.25
31. chain 1 L11P  -7.33
32. chain 1 Y8N  -7.36
33. chain 1 C13I  -7.4
34. chain 1 L11E  -7.4
35. chain 1 Y14K  -7.4
36. chain 1 Y8R  -7.41
37. chain 1 A9H  -7.44
38. chain 1 A9D  -7.46
39. chain 1 P10I  -7.67
40. chain 1 L11N  -7.68
41. chain 1 Y8T  -7.71
42. chain 1 P10Y  -7.79
43. chain 1 C13H  -7.88
44. chain 1 Y8G  -7.94
45. chain 1 Y14E  -7.99
46. chain 1 Y14P  -8.08
47. chain 1 P10R  -8.31
48. chain 1 Y5S  -8.33
49. chain 1 C13K  -8.35
50. chain 1 Y5C  -8.4
51. chain 1 P10S  -8.42
52. chain 1 D4C  -8.47
53. chain 1 Y5V  -8.5
54. chain 1 P10F  -8.64
55. chain 1 Y8C  -8.91
56. chain 1 P10C  -8.95
57. chain 1 Y8S  -8.97
58. chain 1 E1C  -8.98
59. chain 1 A7C  -9.07
60. chain 1 D4V  -9.08
61. chain 1 D3C  -9.13
62. chain 1 E2C  -9.24
63. chain 1 A9C  -9.32
64. chain 1 Y14G  -9.73
65. chain 1 C13L  -10.5

Variants of: B3
Settings: with CCL18 (biotinylated, synthetic); scale: log2

In order of falling enrichment:
1. chain 1 Y5K  -5.8
2. chain 1 Y8K  -6.27
3. chain 1 Y8E  -6.38
4. chain 1 P10K  -7.16
5. chain 1 T16C  -7.88
6. chain 1 P10T  -8.06
7. chain 1 P10E  -8.1
8. chain 1 P10H  -8.15
9. chain 1 Y8R  -8.38
10. chain 1 A9D  -8.43
11. chain 1 P10I  -8.64
12. chain 1 P10M  -8.7
13. chain 1 C13H  -8.85
14. chain 1 Y14P  -9.05
15. chain 1 P10R  -9.28
16. chain 1 C13K  -9.32
17. chain 1 C13D  -9.35
18. chain 1 P10S  -9.39
19. chain 1 D4C  -9.44
20. chain 1 P10C  -9.92
21. chain 1 C13S  -9.93
22. chain 1 E1C  -9.95
23. chain 1 A7C  -10
24. chain 1 C13E  -10.1
25. chain 1 D3C  -10.1
26. chain 1 C13G  -10.6
27. chain 1 C13A  -10.8
28. chain 1 T6C  -11.3

Variants of: B4
Settings: with CCL8 (biotinylated, synthetic); scale: log2

In order of rising enrichment:
1. chain 1 P10V  -9.9
2. chain 1 E2C  -9.53
3. chain 1 C13P  -9.12
4. chain 1 P10F  -8.93
5. chain 1 Y8G  -8.23
6. chain 1 P10M  -8.02
7. chain 1 P10I  -7.96
8. chain 1 L11P  -7.62
9. chain 1 P10H  -7.47
10. chain 1 Y8P  -7.38
11. chain 1 A9P  -7.32
12. chain 1 Y5R  -6.57
13. chain 1 P10K  -6.48
14. chain 1 Y8Q  -5.88
15. chain 1 Y8E  -5.7
16. chain 1 Y8K  -5.59
17. chain 1 Y5K  -5.12
18. chain 1 Y5Q  -4.88

Variants of: B5
Settings: with CCL17 (biotinylated, synthetic); scale: log2

In order of falling enrichment:
1. chain 1 A9K  -6.73
2. chain 1 A9P  -7.91
3. chain 1 A9D  -8.33
4. chain 1 C13H  -8.75
5. chain 1 C13K  -9.23
6. chain 1 C13D  -9.26
7. chain 1 C13W  -9.75
8. chain 1 A7C  -9.94
9. chain 1 D3C  -10
10. chain 1 A9I  -10.1
11. chain 1 A9C  -10.2
12. chain 1 C13G  -10.5
13. chain 1 C13A  -10.7
